Data taken from publication PMC6204036, “Myostatin and activin blockade by engineered follistatin results in hypertrophy and improves dystrophic pathology in mdx mouse more than myostatin blockade alone” (Skeletal Muscle, 2018).

Molecular target: T1, FS-EEE-mFc (human, UniProt P19883 30-344, K76 mutagenized to glutamic acid | K81 mutagenized to glutamic acid | K82 …)
T1 construct: follistatin FS315, human, with K76, K81 and K82 changed to glutamic acid; FS315 cDNA (Clontech) cloned in frame to murine IgG1 Fc cDNA; also called engineered follistatin; FST-EEE-mFc
Experiment: SPR; surface plasmon resonance method as in ref. 48; which partner was immobilised and the conditions are not told
Conditions: both partners purified

T1 sequence (P19883 other isoform, or with tags, fused parts or gaps with the stated changes): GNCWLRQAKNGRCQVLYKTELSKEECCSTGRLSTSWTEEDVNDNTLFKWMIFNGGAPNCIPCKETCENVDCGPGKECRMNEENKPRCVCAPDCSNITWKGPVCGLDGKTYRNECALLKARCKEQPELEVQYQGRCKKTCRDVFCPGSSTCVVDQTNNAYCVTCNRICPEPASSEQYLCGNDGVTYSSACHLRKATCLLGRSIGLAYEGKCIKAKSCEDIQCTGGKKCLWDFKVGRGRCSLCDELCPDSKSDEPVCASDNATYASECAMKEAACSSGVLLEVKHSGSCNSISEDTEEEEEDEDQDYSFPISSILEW

B1: activin A (ligand, UniProt P08476 311-426, looked up)
chain: GLECDGKVNICCKKQFFVSFKDIGWNDWIIAPSGYHANYCEGECPSHIAGTSGSSLSFHSTVINHYRMRGHSPFANLKSCCVPTKLRPMSMLYYDDGQNIIKKDIQNMIVEECGCS
notes: activin A (inhibin beta A chain), the ligand used in SPR
**Q.** For B1, which Kd is on record?
**A.** The Kd was 6.1 pM.
